Measurements: PMC9352680, “A comprehensive thermodynamic model for RNA binding by the Saccharomyces cerevisiae Pumilio protein PUF4”
Substitutions are numbered along the chain they refer to. Numbers in names are those of the source.

T1: PUF4 RNA-binding domain (Saccharomyces cerevisiae, UniProt P25339 537-888)
T1 sequence: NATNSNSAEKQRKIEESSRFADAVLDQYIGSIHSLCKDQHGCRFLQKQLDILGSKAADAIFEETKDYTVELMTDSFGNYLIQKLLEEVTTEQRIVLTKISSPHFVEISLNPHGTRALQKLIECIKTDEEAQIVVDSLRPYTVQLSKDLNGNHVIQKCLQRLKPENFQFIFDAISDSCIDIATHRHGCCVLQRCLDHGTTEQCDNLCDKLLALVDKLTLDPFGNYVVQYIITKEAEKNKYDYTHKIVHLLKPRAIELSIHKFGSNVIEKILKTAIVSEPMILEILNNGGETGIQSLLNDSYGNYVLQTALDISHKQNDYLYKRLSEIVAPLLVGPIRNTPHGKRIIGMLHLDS

B1: Ic_S2_P5E.1_K5.1_C5.1_H5.1_A5.1_[T5G]_[A7G]_F5.1_[T8G]_[T9C]_[A10C]_T5.1 (ssRNA)
RNA: UUUGAUUAAUAUGAUAUCGUUCUUUCUUGUAGUGGCCUUCUUUCUCGAUAUCAUAUUAAUCUUU
B2: Ic_S2_P5E.1_K5.1_C5.1_H5.1_A5.1_[T5A]_[T6C]_[A7C]_F5.1_[T8A]_[T9C]_[A10C]_T5.1 (ssRNA)
RNA: B1 RNA with G32A, U33C, G34C, G35A
B3: Ic_S2_P5E.1_K5.1_C5.1_H5.1_A5.1_[T5A]_F5.1_[T8C]_[T9G]_[A10C]_T5.1 (ssRNA)
RNA: B1 RNA with G32A, G34A, G35C, C36G
B4: Ic_S2_P5E.1_K5.1_C5.1_H5.1_A5.1_[T5C]_[T6G]_[A7T]_F5.1_[T8C]_[A10G]_T5.1 (ssRNA)
RNA: B1 RNA with G32C, U33G, G34U, G35C, C36U, C37G
B5: Ic_S2_P5E.1_K5.1_C5.1_H5.1_A5.1_[T5C]_[T6A]_[A7G]_F5.1_[T9G]_[A10C]_T5.1 (ssRNA)
RNA: B1 RNA with G32C, U33A, G35U, C36G
B6: Ic_S2_P5E.1_K5.1_C5.1_H5.1_A5.1_[T6C]_F5.1_[T8A]_[A10G]_T5.1 (ssRNA)
RNA: B1 RNA with G32U, U33C, G34A, G35A, C36U, C37G
B7: Ic_S2_P5E.1_K5.1_C5.1_H5.1_A5.1_[T5G]_[T6C]_[A7T]_F5.1_[T8G]_[T9G]_[A10T]_T5.1 (ssRNA)
RNA: B1 RNA with U33C, G34U, C36G, C37U
B8: Ic_S2_P5E.1_K5.1_C5.1_H5.1_A5.1_[T5G]_[A7T]_F5.1_[T9A]_[A10T]_T5.1 (ssRNA)
RNA: B1 RNA with G34U, G35U, C36A, C37U
B9: Ic_S2_P5E.1_K5.1_C5.1_H5.1_A5.1_[T6C]_[A7C]_F5.1_[T8C]_T5.1 (ssRNA)
RNA: B1 RNA with G32U, U33C, G34C, G35C, C36U, C37A
B10: Ic_S2_P5E.1_K5.1_C5.1_H5.1_A5.1_[T5A]_[T6C]_[A7T]_F5.1_[T8A]_[T9A]_T5.1 (ssRNA)
RNA: B1 RNA with G32A, U33C, G34U, G35A, C36A, C37A
B11: Ic_S2_P5E.1_K5.1_C5.1_H5.1_A5.1_[T5A]_[T6A]_[A7T]_F5.1_[T8A]_[T9C]_[A10G]_T5.1 (ssRNA)
RNA: B1 RNA with G32A, U33A, G34U, G35A, C37G
B12: Ic_S2_P5E.1_K5.1_C5.1_H5.1_A5.1_[T5A]_[A7C]_F5.1_[T9A]_T5.1 (ssRNA)
RNA: B1 RNA with G32A, G34C, G35U, C36A, C37A
B13: Ic_S2_P5E.1_K5.1_C5.1_H5.1_A5.1_[T6A]_[A7T]_F5.1_[T8A]_[T9C]_[A10G]_T5.1 (ssRNA)
RNA: B1 RNA with G32U, U33A, G34U, G35A, C37G
B14: Ic_S2_P5E.1_K5.1_C5.1_H5.1_A5.1_[A7T]_F5.1_[T9C]_[A10T]_T5.1 (ssRNA)
RNA: B1 RNA with G32U, G34U, G35U, C37U
B15: Ic_S2_P5E.1_K5.1_C5.1_H5.1_A5.1_[T5A]_[T6C]_[A7C]_F5.1_[T8G]_T5.1 (ssRNA)
RNA: B1 RNA with G32A, U33C, G34C, C36U, C37A
B16: Ic_S2_P5E.1_K5.1_C5.1_H5.1_A5.1_[T5A]_[A7T]_F5.1_[T8A]_[A10C]_T5.1 (ssRNA)
RNA: B1 RNA with G32A, G34U, G35A, C36U
B17: Ic_S2_P5E.1_K5.1_C5.1_H5.1_A5.1_[T5A]_[T6C]_[A7G]_F5.1_[T8G]_[T9C]_[A10C]_T5.1 (ssRNA)
RNA: B1 RNA with G32A, U33C
B18: Ic_S2_P5E.1_K5.1_C5.1_H5.1_A5.1_[T5G]_F5.1_[T8C]_[T9C]_[A10T]_T5.1 (ssRNA)
RNA: B1 RNA with G34A, G35C, C37U
B19: Ic_S2_P5E.1_K5.1_C5.1_H5.1_A5.1_[A7C]_F5.1_[T9G]_[A10G]_T5.1 (ssRNA)
RNA: B1 RNA with G32U, G34C, G35U, C36G, C37G
B20: Ic_S2_P5E.1_K5.1_C5.1_H5.1_A5.1_[T6A]_[A7T]_F5.1_[T8C]_[T9A]_[A10G]_T5.1 (ssRNA)
RNA: B1 RNA with G32U, U33A, G34U, G35C, C36A, C37G
B21: Ic_S2_P5E.1_K5.1_C5.1_H5.1_A5.1_[T6A]_[A7T]_F5.1_[T8C]_[T9G]_[A10G]_T5.1 (ssRNA)
RNA: B1 RNA with G32U, U33A, G34U, G35C, C36G, C37G
B22: Ic_S2_P5E.1_K5.1_C5.1_H5.1_A5.1_[T5C]_[A7C]_F5.1_[A10T]_T5.1 (ssRNA)
RNA: B1 RNA with G32C, G34C, G35U, C36U, C37U
B23: Ic_S2_P5E.1_K5.1_C5.1_H5.1_A5.1_[T5A]_F5.1_[T9G]_[A10G]_T5.1 (ssRNA)
RNA: B1 RNA with G32A, G34A, G35U, C36G, C37G
B24: Ic_S2_P5E.1_K5.1_C5.1_H5.1_A5.1_[T5C]_[A7G]_F5.1_[T8G]_T5.1 (ssRNA)
RNA: B1 RNA with G32C, C36U, C37A
B25: Ic_S2_P5E.1_K5.1_C5.1_H5.1_A5.1_[T5C]_[T6C]_[A7T]_F5.1_[T8A]_[A10T]_T5.1 (ssRNA)
RNA: B1 RNA with G32C, U33C, G34U, G35A, C36U, C37U
B26: Ic_S2_P5E.1_K5.1_C5.1_H5.1_A5.1_[T5A]_[T6A]_F5.1_[T8C]_[T9A]_[A10C]_T5.1 (ssRNA)
RNA: B1 RNA with G32A, U33A, G34A, G35C, C36A
B27: Ic_S2_P5E.1_K5.1_C5.1_H5.1_A5.1_[T5G]_[T6C]_[A7T]_F5.1_[T8C]_[T9G]_[A10T]_T5.1 (ssRNA)
RNA: B1 RNA with U33C, G34U, G35C, C36G, C37U
B28: Ic_S2_P5E.1_K5.1_C5.1_H5.1_A5.1_[T6C]_[A7C]_F5.1_[T8A]_[T9G]_[A10C]_T5.1 (ssRNA)
RNA: B1 RNA with G32U, U33C, G34C, G35A, C36G

Molecular target: T1, PUF4 RNA-binding domain
Experiment: Mg; RNA-MaP; 20 mM Na-HEPES pH 7.4, 30 mM KOAc, 0.75 mM MgCl2, 0.1% Tween-20, 5% glycerol, 0.1 mg/mL BSA, 2 mM DTT; 25 C; 0.0125-409.6 nM protein
Settings: tags: N-His6-TEV cleaved; C-SNAP kept, Cy3B-labelled; label: tethered on chip by stalled RNA polymerase

Binder | Kd [nM]
UCUCUUUAUAUAUUGUCUCUU (ssRNA) [Ib_S1_P4E.1_K4.1_C4.1_H4.1_[G2A]_A4.1_F4.1_[A9G]_T4.1] | 334
B1 | > 2300
B2 | 1060
B3 | 1050
B4 | 1250
B5 | 9.13
B6 | 122
B7 | 679
B8 | 1.93
B9 | 9.09
B10 | 129
B11 | 52
B12 | 8.11
B13 | 8.49
B14 | 16.4
B15 | 12.9
B16 | 113
B17 | > 2300
B18 | 413
B19 | 23.5
B20 | 24.5
B21 | 49.1
B22 | 8.52
B23 | 75.2
B24 | 38.2
B25 | 9.6
B26 | 128
B27 | 275
B28 | 1560
